Reference: article doi:10.1101/2023.02.09.527830
“And” between values parts separate entries of the source, which are not always exact repeats. Equal entries are not always repeated.

What was measured:
[1] = target: Lassa virus nucleoprotein (NP), AV strain (Lassa virus (AV strain)); experiment: negative-stain electron microscopy
[2] = target: Lassa virus nucleoprotein (NP), AV strain (Lassa virus (AV strain)); experiment: SEC
[3] = target: Lassa virus nucleoprotein (NP), AV strain (Lassa virus (AV strain)); experiment: native MS
[4] = target: Lassa virus nucleoprotein (NP), AV strain (Lassa virus (AV strain)); experiment: native MS; remark: listed apart in the source
[5] = target: Lassa virus Z protein, AV strain (Lassa virus (AV strain)); experiment: native MS

Row | Substance | stoichiometry N [1] | stoichiometry N [2] | stoichiometry N [3] | stoichiometry N [4] | Kd [4] | stoichiometry N [5]
1 | Lassa virus nucleoprotein (NP), AV strain (natural protein) | 3 | 3 | 4 and 5 and 6 | 2 and 3 | – | –
2 | Lassa virus Z protein, AV strain (natural protein) | – | – | – | < 3 | 30 µM | < 6
